These are literature values, as cited in paper PMC3831880.

In this data set the target is HPr (Escherichia coli) (UniProt P0AA04). The data set is described as follows: PRE titration.

By Kd is commonly meant the equilibrium constant for the complex coming apart. Take “Enzyme I N-terminal domain (EIN) N-terminal domain (from UniProt P08839)”: the Kd is 7 µM.
